B1: Pistol ribozyme (parent)
chain: GGGUCGUUGUUCCAUAAUCGCGUGGAUAUGGCACGCAAGUUUCUACCGGGCACCGUAAAUGUCCGACUGGAGCCGUUCGGGCGGCUAUAAACAGACCUCAGGCCCGAAGCGUGGCGGCACCUGCCGCCGGUGGUAAAAAAGAUCGGAAGAGCACACGUCU

Variants of: B1
Test: aptazyme ON/OFF ratio, guanine; higher = stronger switching; co-transcriptional cleavage with and without guanine

Variant	aptazyme ON/OFF ratio
GGGUCGAGUGGAUAUAAUCGCGUGGAUAUGGCACGCAAGUUUCUACCGGGCACCGUAAAUGUCCGACUGGAGCCGUUCGGGCGGCUAUAAACAGACCUCAGGCCCGAAGCGUGGCGGCACCUGCCGCCGGUGGUAAAAAAGAUCGGAAGAGCACACGUCU	1.21
GGGUCGUUCCUUAAUAAUCGCGUGGAUAUGGCACGCAAGUUUCUACCGGGCACCGUAAAUGUCCGACUGGAGCCGUUCGGGCGGCUAUAAACAGACCUCAGGCCCGAAGCGUGGCGGCACCUGCCGCCGGUGGUAAAAAAGAUCGGAAGAGCACACGUCU	1.07
GGGUCGGCGAAUGAUAAUCGCGUGGAUAUGGCACGCAAGUUUCUACCGGGCACCGUAAAUGUCCGACUGGAGCCGUUCGGGCGGCUAUAAACAGACCUCAGGCCCGAAGCGUGGCGGCACCUGCCGCCGGUGGUAAAAAAGAUCGGAAGAGCACACGUCU	1.2
GGGUCGAUCCCCAAUAAUCGCGUGGAUAUGGCACGCAAGUUUCUACCGGGCACCGUAAAUGUCCGACUGGAGCCGUUCGGGCGGCUAUAAACAGACCUCAGGCCCGAAGCGUGGCGGCACCUGCCGCCGGUGGUAAAAAAGAUCGGAAGAGCACACGUCU	1.01
GGGUCGUGUUGGCAUAAUCGCGUGGAUAUGGCACGCAAGUUUCUACCGGGCACCGUAAAUGUCCGACUGGAGCCGUUCGGGCGGCUAUAAACAGACCUCAGGCCCGAAGCGUGGCGGCACCUGCCGCCGGUGGUAAAAAAGAUCGGAAGAGCACACGUCU	1.39
GGGUCGUUUACAUAUAAUCGCGUGGAUAUGGCACGCAAGUUUCUACCGGGCACCGUAAAUGUCCGACUGGAGCCGUUCGGGCGGCUAUAAACAGACCUCAGGCCCGAAGCGUGGCGGCACCUGCCGCCGGUGGUAAAAAAGAUCGGAAGAGCACACGUCU	1.41
GGGUCGUCCAACGAUAAUCGCGUGGAUAUGGCACGCAAGUUUCUACCGGGCACCGUAAAUGUCCGACUGGAGCCGUUCGGGCGGCUAUAAACAGACCUCAGGCCCGAAGCGUGGCGGCACCUGCCGCCGGUGGUAAAAAAGAUCGGAAGAGCACACGUCU	1.17
GGGUCGCGCAAUCAUAAUCGCGUGGAUAUGGCACGCAAGUUUCUACCGGGCACCGUAAAUGUCCGACUGGAGCCGUUCGGGCGGCUAUAAACAGACCUCAGGCCCGAAGCGUGGCGGCACCUGCCGCCGGUGGUAAAAAAGAUCGGAAGAGCACACGUCU	1.26
GGGUCGUGCGUGAAUAAUCGCGUGGAUAUGGCACGCAAGUUUCUACCGGGCACCGUAAAUGUCCGACUGGAGCCGUUCGGGCGGCUAUAAACAGACCUCAGGCCCGAAGCGUGGCGGCACCUGCCGCCGGUGGUAAAAAAGAUCGGAAGAGCACACGUCU	1.08
GGGUCGGGGGGAUAUAAUCGCGUGGAUAUGGCACGCAAGUUUCUACCGGGCACCGUAAAUGUCCGACUGGAGCCGUUCGGGCGGCUAUAAACAGACCUCAGGCCCGAAGCGUGGCGGCACCUGCCGCCGGUGGUAAAAAAGAUCGGAAGAGCACACGUCU	1.33
GGGUCGGUAAAAAAUAAUCGCGUGGAUAUGGCACGCAAGUUUCUACCGGGCACCGUAAAUGUCCGACUGGAGCCGUUCGGGCGGCUAUAAACAGACCUCAGGCCCGAAGCGUGGCGGCACCUGCCGCCGGUGGUAAAAAAGAUCGGAAGAGCACACGUCU	1.07
GGGUCGGACGACGAUAAUCGCGUGGAUAUGGCACGCAAGUUUCUACCGGGCACCGUAAAUGUCCGACUGGAGCCGUUCGGGCGGCUAUAAACAGACCUCAGGCCCGAAGCGUGGCGGCACCUGCCGCCGGUGGUAAAAAAGAUCGGAAGAGCACACGUCU	1.02
GGGUCGCCUUUUGAUAAUCGCGUGGAUAUGGCACGCAAGUUUCUACCGGGCACCGUAAAUGUCCGACUGGAGCCGUUCGGGCGGCUAUAAACAGACCUCAGGCCCGAAGCGUGGCGGCACCUGCCGCCGGUGGUAAAAAAGAUCGGAAGAGCACACGUCU	1.02
GGGUCGCAUCUUCAUAAUCGCGUGGAUAUGGCACGCAAGUUUCUACCGGGCACCGUAAAUGUCCGACUGGAGCCGUUCGGGCGGCUAUAAACAGACCUCAGGCCCGAAGCGUGGCGGCACCUGCCGCCGGUGGUAAAAAAGAUCGGAAGAGCACACGUCU	1.13
GGGUCGUUGACUGAUAAUCGCGUGGAUAUGGCACGCAAGUUUCUACCGGGCACCGUAAAUGUCCGACUGGAGCCGUUCGGGCGGCUAUAAACAGACCUCAGGCCCGAAGCGUGGCGGCACCUGCCGCCGGUGGUAAAAAAGAUCGGAAGAGCACACGUCU	1.08
GGGUCGGACACUAAUAAUCGCGUGGAUAUGGCACGCAAGUUUCUACCGGGCACCGUAAAUGUCCGACUGGAGCCGUUCGGGCGGCUAUAAACAGACCUCAGGCCCGAAGCGUGGCGGCACCUGCCGCCGGUGGUAAAAAAGAUCGGAAGAGCACACGUCU	1.03
GGGUCGUCAAGUAAUAAUCGCGUGGAUAUGGCACGCAAGUUUCUACCGGGCACCGUAAAUGUCCGACUGGAGCCGUUCGGGCGGCUAUAAACAGACCUCAGGCCCGAAGCGUGGCGGCACCUGCCGCCGGUGGUAAAAAAGAUCGGAAGAGCACACGUCU	1.18
GGGUCGUAAUUCAAUAAUCGCGUGGAUAUGGCACGCAAGUUUCUACCGGGCACCGUAAAUGUCCGACUGGAGCCGUUCGGGCGGCUAUAAACAGACCUCAGGCCCGAAGCGUGGCGGCACCUGCCGCCGGUGGUAAAAAAGAUCGGAAGAGCACACGUCU	1.19

Reference: the RNAGym collection of RNA variant scans (doi:10.1021/acssynbio.7b00057)
